# In the DeepSol protein solubility set:
# Test: soluble on expression in E. coli; label from the status in PepcDB or PDB records
row,Sequence,soluble on expression in E. coli
1,MSLSLLSKLDVSPLQFQDPSKDGSKIINLNLDGSGDPLRLSELGESDYSNSIKVRDNEYVTYHLSNDYSVLTIYSMNDALQNKTINIKLPVQSTNKQHTSIVFVKDEAFNVEFILRNSIYLKISIPIDFIINNSSELNEDWFYVLQPYDFSVRKPHMLHRVSDNFSVVFLEDGGLVGLTSHGETDLEPILFNDNSYLQSITRLFSKSKHSKNSKVVSCSNYQSNFLIVLTEDCILKIWDLKKLILINEYNLFDVNNSDFIAGGLFDSCGNYLHLFNNLLTIYLPFTNGLFQVGTLDVDSSDKLTFQSKIVIPSNLPASSLWSLTDMRMINPLDLNLPETFLNIIVLWKSGTMSKLQILNILNESVDSYEWIDASNKDLEETRIESDIESSDFSKTLFKLTSRYPKAIVDRAIKVLEENGISIPLQEALDEEYLANLETLLRDIKGGCDEASSLTLYNDEIIVINCLQKYNYSIYKINCSLEKTYFDINDDSEGHHHHHH,soluble
2,MSLSLSLAEARRLALAAQGFDGRRTRRSVQRRHLREMLARLGLLQIDSVNALVRSHYLPLFSRLGPYSMTLLDEAAWSVGRHRQLFEYWGHEASLLPLEHYPLMRWRMRQAADGQGIYQQLARFGREQQPLIRQVLQAVREQGALGAGSLSTRQERAGPWWDWSAEKHALEWLFAAGELTVAGRRGFERLYDLPERVFPAELLARPELSEAQAQRELLRMAASALGVATEKDLRDYYRLSPAQSRARLAELVEAGELLPVRVEGWSQPAYCPGEPQVPRRLGASALLSPFDSLVWERARAERLFDFRYRLEIYTPKEKRVYGYYVLPFLYNGRLVGRVDLRAERARERLVVHALHAEANGMDDAALHELAEQLRSMAAWLGLATVAIEGRGELAVRLRGVLLLEHHHHHH,not soluble
3,MSLSMCGNKISVIRPLPAEVVKKIAAGEIIARPSSAIKELIENSVDAGATEIRVNLSSNPLDFCEIIDNGSGVSEKDLMIICQRYTTSKTTDSIEGVRSLGFRGEALSSLSQNSHVTISSRTENENMRTVMTYSECEPVLDEIRYEEGPRGFHLKYENLFYNYEIRSKSLLSNINSEFISCLHLVQKYSIHFPNINFVFNRTSSPILDLNNLNNVSSQQSSGSGSGDSCSSQPNCNFSTSSRFDDYDSSDDELDITLTQKLEYDYHYFTKMYDDPKSDDLRTEYIRNVEKVSFDCLRVIKENIKRIYGLKVSNVLQEVVFNNFDDLFFNCKGLISHPNQPCKLDMFILFVNNRLIDLPNLRRMIFNTYNDITNNRYRRFVYLSIFVPYDQIDSNIHPTKKRIMIENQAEIVEQITKFFHDKITELIKSATTEGHHHHHH,soluble
4,MSLSMEFDAVIIGGGVSGCATFYTLSEYSSLKRVAIVEKCSKLAQISSSAKANSQTIHDGSIETNYTPEKAKKVRLSAYKTRQYALNKGLQNEVIFETQKMAIGVGDEECEFMKKRYESFKEIFVGLEEFDKQKIKELEPNVILGANGIDRHENIIGHGYRKDWSTMNFAKLSENFVEEALKLKPNNQVFLNFKVKKIEKRNDTYAVISEDAEEVYAKFVLVNAGSYALPLAQSMGYGLDLGCLPVAGSFYFVPDLLRGKVYTVQNPKLPFAAVHGDPDAVIKGKTRIGPTALTMPKLERNKCWLKGISLELLKMDLNKDVFKIAFDLMSDKEIRNYVFKNMVFELPIIGKRKFLKDAQKIIPSLSLEDLEYAHGFGEVRPQVLDRTKRKLELGEKKICEGHHHHHH,not soluble
5,MSLSNALVNPREAPAHGRFVPAPILAHRNCTQGALNMLEAKLKPHREYLLAQSAGQKLFLTLTVKPTAEARQARPDLSVVFVVDTSGSMREVVTEPTERTGRTTQVDGQVYEVVKGGKNKMQLMIEALRGIVTSTLIRPGDRLALVKFDDTAEVLVPFITASNQAQLAAAVDKLDWYSGGTHMGAGMRAGAGLLTGERGSRRMVLISDGQTFDAPLVEDQIGALAGLQVPVTVVAVGDEVNADLLTAIADRTQGQPLDIVPDTQNPQPPAIRASELPAALLGDLQKAAAEVVTGVALSVRTVKDVVLERVTRVQPTQTEVALRADGPLPLGNVDAGSGATFVLEFTLPARPATKMRLAQLGLTYEVPGANYRGEIPPLDVVVEFTGEEALAARIDPEVMGWVQQRNIEGLVAQATREANQNPEQAAKTLEQARAMTQRLGNGAMTQALDRAIGELGSSKTISLGTAKTLKIGAKTQTLSSDAALPSDEDIRRMTGEGGSHHHHHH,soluble
6,MSLSNGAPGTRIASAVGAFDVSRRASLTRGAGEAVERFALVPVPADSEHLLARNGSADPQIDFVSAGLGHVSALACDVPWYRAVDLLTGKPTQVPAPVVDYTPGRGESNSWDAFFDPSPNGAASGPSEAFAQTSAIAEVMERDAFLAAWRHKIPLQKFDAKSMPVAVRQGAEARGLSLLLVAARAAGVEPTLAFIPNNGSPLLTAVCIITEEKGPVCYGAVGLKAASDPVSALKGALQEGLQIRELFLTRAHSADPASASPVSAPSVATVTDDDSRAHFWTTAPAIAELRRWVGSFQPSNFPSKQPEPDLDALVKHLAGRNVRSHWVNLTHRLPAAIRELGWVAGKAVCPGAVPLTMDETKELFVMPGSEGHHHHHH,soluble
7,MSLSNLPADSFRVGVSEDRNRRCRRTMEDAHSFVYDFAGVKGQGYFAVFDGHAGKHAAEWCGQNFHEYLLDGLLIEPDTPVPDLMNKTFHLVDKRLSHLAHAAGTSSGCTAVTAFLRVEEMDDNDSFRKGFTNPGLQPRGLWEGKGEDELESQTSLQPSSRRSSMGGGTGGQMGGASAPGVNGRTGSLARRLSSKKIRDFVKGLTGGMEKNFDEAITEDEGVISAADGTRVEAIEPKSEKGVRRVLYTANVGDARAVLCRGGKAVRLTYDHKGSDAQEAKRITDAGGFVMNNRVNGVLAVTRSLGDASMKEFVVGAPYTTETTLDEQDEFLIVACDGLWDVCSDQEAVEIVHLVTDPQEASKRLLDHAMSNFSTDNLSVMVVRFNHEGHHHHHH,soluble
8,MSLSNTVHVFFGNKDSKVQVFKDKGTNQFANQVNLFMGDYLDTYFNRDKDTDLDKLKKYYGSGIDIKGQESRDIDMKLEHVSLVEIKSSVAVYDINYQIKDGDNWKSVLARINVPYKEKDGRYYVSDLPYYTDQSSYVADTVKGNSKLPTQSEVEGLSNKKLSGLKDYIVAFFKAYTSGDNSQMAPFSGAVSPLKSYEFEELDYAYFIKHKHSIIAVVQVTFKNEFGVKHQENFTLEVTESKQTSSYYVKSMKHGIDEDCRKEMKMDEGHHHHHH,soluble
9,MSLSNYWLGLDCGGSWLKAGLYDGAGREVAVQRLPLHALSPQPGWVERDMTELWQQCASVISKLLAHTGVSGSQIRGLGISAQGKGLFLLDKSDRPLGKAILSSDRRAMEIVQRWQKEAVPQKLYPLTRQTLWTGHPVSLLRWVKENEPQRYAQIGCVMMTHDYLRWCLTGVKGCEESNISESNLYNMATGQYDPRLTEWLGISEIDSALSPVVGSAEICGEITAQAAAITGLAAGTPVVGGLFDVVSTALCAGIEDESTLNAVMGTWAVTSGIAHGLRDHEAHPYVYGRYVNDGQYIVHEASPTSSGNLEWFTAQWGDLSFDEINQAVASLPKAGSDLFFLPFLYGSNAGLEMTCGFYGMQALHNRAHLLQALYEGVVFSHMTHLNRMRERFTEVCALRVTGGPAHSDVWMQMLADVSGLRIELPQVEETGCFGAALAARVGTGVYRDFREAQRDLQHPVRTLLPDMTAHALYQRKYRQYQDLIEALQGYHARIKEHALEGHHHHHH,soluble
10,MSLSPNDHCFSSHTETGPRKRNEDFSVYIDDLNSLLTCHHGRISVFGVFDGHMGTSASDYCSFKIFNYLVSNPHFPENIQIALKESFKQVNKGFLTIADVLHINAGTTAGVCVIDDKKITTANIGDTEIMFCKRNHKPLILSNKHSPNNEIEKQRIELAGGKVFYFHGWRVEGLLGVSRSIGDIALKKFVIDEADTNQIERSPDDEFVLIGCDGLWNVISYDFCADMVREYLYTNNYNGVDENGIKKPINKKDIARYLVDLALFKQSLDNVTVSIYFFSKEGHHHHHH,soluble
11,MSLSQANRVFITGRSALTASGATADETWNAIISGQCGIDEINFWELSEWSHRLGGEIKDFQPSKMLPDRKLIKVISRQDIMGINAAVQAVEHSKMIAYRDSLADADLFNEQTAIYVGSPGNKYFQQYDFIPLLAKTHGDMRSFANQLFDEVHPMWLLRILPNNVLAYTGITYGFKGPNHNVTNHAVGGTQAILEAYHAIRSGQAERAVVVAYDIGTEPQGLFYYEKLGVVSNRHLKPFDKEHDGTILAEGAAALVLESEASVKSRAATCYGEIVGGLSASEATGLFSIEADGQHLASLMGQTLSTSGINSEEIGLIVTHGNGNSKSDDSEALAIKSVFKQEEVPATAFKWSMGHTLCASGVLDAVLTTYALETKCVPGIANFQQIAPTCEGLSVSREHREIISNSYAMMINRGFASMNVCLVIKACEEGHHHHHH,not soluble
12,MSLSQSSRLSALPIFQASLSASQSPRYIFSSQNGTRIVFIQDNIIRWYNVLTDSLYHSLNFSRHLVLDDTFHVISSTSGDLLCLFNDNEIFVMEVPWGYSNVEDVSIQDAFQIFHYSIDEEEVGPKSSIKKVLFHPKSYRDSCIVVLKEDDTITMFDILNSQEKPIVLNKPNNSFGLDARVNDITDLEEGHHHHHH,soluble
13,MSLSRHSNTPATDASVLLVQLSDSHLFAEDGARLLGMDTAHSLEKVVERVAREQPRIDLILATGDVSQDGSLDSYTRFRRLSAPLDAPLRWFAGNHDEREPMQRATEGSDLLEQVVDVGNWRVVLLDSSIPGAVPGYLEEDQLELLRRAIDSAGERFLLVSFHHHPVPIGSDWMDPIGLRNPQALFDLLAPYPQVRCLLWGHIHQEFDRQRGPLRLLASPSTCVQFAPGSSDFTLDRLAPGYRWLRLHDDGRLETGISRVDDVVFEVDYDTAGYEGGSHHHHHH,soluble
14,MSLSRKNQELAKIFERMADILEFLGENPYRIRTYRRVANLISELQEDVEKAFYTRKLHHMPGIGESTLLKIEEFLKTGTIKKYEELRRMVPEDLLELLDAPGVGPKTLKIAYEQLGIRTKEEFIEALKKGKFNKIRGFGPVKALKILRGIELWEKSKERISLIEAYPMAQEVLKYMERIKDKYENISIAGSLRRMKETIGDIDILVSAKKENWKAIHEHFTKYPGLLEVLAKGETKSSIILDTGRQVDLRTVEPISWGAALQYFTGSKQHNIRIRDIAKEKGLKVNEYGVFKVDTEERIAGETEEGVYEVLGMQWIPPELREDWGEIELALEHKLPRLVELKDIKGDLHMHTNWSDGVNTLEEMVETAYKLGYQYIVIGDHSQSARVANGLDPERYKQQWKEIDRLNKEYNPKGFYILKGAEVDILPDGSLDLPDEVLEQFDFVVASVHSRFEQDNTERIIKAMENPYVNMIGHPTGKQYGYREGYPVNIEKLIQKAKETGTALELNTQRMDLSPENVRKCMEAGVYIGIVTDAHSARQLHLMFLGVGLARRGWATPDKVINTFDLEGLKEFVYKKRKNLAREGHHHHHH,soluble
15,MSLSRLLNDFNQSLKKGFIDKDISHKGNYTPKLLVNNKNEKVLSTIIDELQKCETFYFSVAFITESGLASLKAQLLDLSNKGVKGKILTSNYLGFNSPKMYGELLKLKNVEVRLTDIAGFHAKGYIFEHKDYSSMVIGSSNLTSNALKVNYEHNVLLSTMKNGDLVDSVKNEFELLWQKSTPLTEQWINSYKESFEYRSLEKLAEVEQTQMLLADKVKKSVEIVPNLMQAEALRSLKAIRDKTKDKALIISATGTGKTILCALDVREVNPNKFLFIVHNEGILNRAKEEFKKVLPIKNDSDFGLLTGKHRDVDAKYLFATIQTLSRDDNFKQFDENEFDYIVFDEAHRSAASTYQRVFNYFKPKFMLGMTATPERSDELSIFELFDYNIAYEIRLQAALESDILCPFHYFGVTDYVHQGIKEDDVTKLRYLTSDERVNYIIQKTDEGHHHHHH,not soluble
16,MSLSRLSSPQTFSRVFIVARGAATGHAVAPSSDNSIGYFEKIAYRFKGIPLPTETEAPKSMFDACNKEWSAPELLPSVPKDFKEHPDRDLTNYPYPSRPMYPPKTRLLMMPDSWFTAFQKVTGTSGPYLFFGGLFAFLVNKELWVFEEQGHMTVGWILFYLLVSRTAGYKIDAGLYKDYQERVGFFKGLIQEDLKEAVDFRKTSAAQTASFAALKEGMPTSLKDSMQLQLEAAYRKNVQTISNEIKRRIEYLKETEETKARFERDQLLKLINDSVEKQVSQKDFQEKFLQNAIQQLKGIAV,not soluble
